Measured values from US20170320956A1 (KYMAB, published 2017).
Read-outs that look alike come from different tables or passages of the source.

T1: recombinant human LIGHT-214K, FLAG-tagged extracellular domain (human)
T1 construct: the IgK leader peptide is marked only by underlining (not visible here), so its residues were not removed; Trimer
T1 chain: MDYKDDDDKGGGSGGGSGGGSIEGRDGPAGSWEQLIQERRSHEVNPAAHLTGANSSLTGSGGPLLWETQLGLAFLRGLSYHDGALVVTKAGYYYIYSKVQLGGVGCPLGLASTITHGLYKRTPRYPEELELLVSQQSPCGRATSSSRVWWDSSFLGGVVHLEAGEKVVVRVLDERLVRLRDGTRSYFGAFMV

T2: recombinant human LIGHT-214E, FLAG-tagged extracellular domain (human)
T2 construct: Trimer; Biotinylated in some assays
T2 chain: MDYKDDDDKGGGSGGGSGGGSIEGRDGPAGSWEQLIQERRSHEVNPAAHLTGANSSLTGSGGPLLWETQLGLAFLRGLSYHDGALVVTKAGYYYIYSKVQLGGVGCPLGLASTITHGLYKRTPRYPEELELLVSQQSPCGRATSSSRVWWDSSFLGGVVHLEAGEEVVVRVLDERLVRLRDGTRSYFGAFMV

T3: mouse LIGHT (mouse, UniProt Q9QYH9 72-239, limits assumed)
T3 construct: also called murine LIGHT
T3 sequence (looked up): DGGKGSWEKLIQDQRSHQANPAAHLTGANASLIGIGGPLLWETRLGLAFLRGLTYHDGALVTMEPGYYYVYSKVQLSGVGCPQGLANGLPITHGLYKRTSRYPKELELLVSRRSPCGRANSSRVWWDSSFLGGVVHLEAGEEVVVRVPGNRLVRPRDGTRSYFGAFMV

T4: rabbit LIGHT protein, FLAG-tagged extracellular domain (rabbit)
T4 chain: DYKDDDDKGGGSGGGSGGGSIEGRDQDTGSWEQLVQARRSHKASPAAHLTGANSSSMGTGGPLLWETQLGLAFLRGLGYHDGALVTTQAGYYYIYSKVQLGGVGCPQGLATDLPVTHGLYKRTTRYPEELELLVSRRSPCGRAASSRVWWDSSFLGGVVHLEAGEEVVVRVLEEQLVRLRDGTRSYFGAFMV


What was measured:
[1] = target: T5, recombinant cynomolgus monkey LIGHT, FLAG-tagged extracellular domain (cynomolgus (Macaca fascicularis), UniProt E9NVF7 59-240); test: SPR ProteOn, mAb captured on anti-mouse IgG, LIGHT 256 nM, 25 C, apparent affinity
T5 construct: extracellular domain; also called cynomolgus LIGHT; cyno LIGHT
Protocol: (§1) SPR analysis was carried out using the ProteOn™ XPR36 Array System (BioRad). Anti-mouse IgG (GE Healthcare BR-1008-38) was immobilised on a GLC biosensor surface using amine coupling, the surface was then blocked using 1M ethanolamine. […] Apparent affinities for the LIGHT-antibody interaction were determined using the 1:1 model inherent to the ProteOn XPR36 analysis software. The assay was run using HBS-EP (Teknova) as running buffer and carried out at 25° C.

[2] = target: T1, recombinant human LIGHT-214K, …; test: as above
Protocol: as §1

[3] = target: T2, recombinant human LIGHT-214E, …; test: as above
Protocol: as §1

[4] = target: T2, recombinant human LIGHT-214E, …; test: HTRF competition, HVEM-Fc binding to Flag-hLIGHT-214E
Protocol: (§2) The following methods were carried out with a titration of inhibitor in order to establish the clone potency as measured by IC50 values in the assay. 5 μl of Flag-tagged hLIGHT (in-house) diluted to 2.5 nM final concentration (10 nM working concentration) in HTRF buffer with 5 μl of a titration of antibody purified from hybridoma supernatant diluted in HTRF assay buffer from 300 nM final (1200 nM working concentration) was pre-incubated for 1 hour at room temperature. To wells used to define total binding, 5 μl of LIGHT (10 nM working, 2.5 nM final) and 5 μl of hybridoma maintaining media (HMM,)) were added. To wells used to define non specific binding (receptor only) 10 μl of HMM was added. Total and non specific binding wells were pre-incubated for 1 hr at RT in the same plate as wells containing titration of inhibitor.
(§3) LIGHT receptor was diluted in HTRF assay buffer and added to all wells, 5 μl/well of HVEM-Fc or LTβR-Fc (R&D systems) at 1.2 nM for HVEM (0.3 nM final) and 0.4 nM for LTβR (0.1 nM final).

[5] = target: T2, recombinant human LIGHT-214E, …; test: HTRF competition, LTβR-Fc binding to Flag-hLIGHT-214E
Protocol: as §2, §3

mouse LIGHT = target: T3, mouse LIGHT; test: SPR ProteOn, mAb captured on anti-mouse IgG
[6] = target: T2, recombinant human LIGHT-214E, …; test: cell-based or functional assay
[7] = target: human LIGHT-214E, full length, expressed on the surface of CHO-S cells (human, UniProt O43557 1-240); test: flow cytometry, CHO-S cells expressing hLIGHT-214E
[8] = target: T4, rabbit LIGHT protein, FLAG-tagged …; test: SPR ProteOn, mAb captured on anti-human IgG, 25 C
Protocol: This created a capture surface suitable for capturing human antibodies. The LIGHT antibodies were captured on this anti-human IgG surface, and then human and rabbit LIGHT proteins were passed over captured LIGHT Abs at a concentration of 200 nM. A buffer injection was used to double reference the LIGHT binding sensorgrams. The assay was run at 25° C., using HBS-EP as running buffer.

[9] = target: T2, recombinant human LIGHT-214E, …; test: HTRF competition, AlexaFluor 647 LTβR-Fc binding to Flag-hLIGHT-214E
Protocol: as §2
(§4) The final IgG4(PE) format lead panel was analysed for neutralization activity as in Example 3. Antibodies were tested for their ability to neutralize LIGHT binding to its receptors, HVEM and LTβR, in an HTRF assay. Antibodies were also tested for their ability to neutralize LIGHT-induced IL-8 release by HT29 colon carcinoma cells.
(§5) HTRF assays were performed as per Example 3, with the following modifications: HVEM-Fc and LTβR-Fc were labelled with AlexaFluor 647, and an anti-Flag K antibody (Cisbio) was used for detection.

[10] = target: T5, recombinant cynomolgus monkey LIGHT, …; test: SPR ProteOn, mAb captured on anti-human IgG, 37 C
[11] = target: T2, recombinant human LIGHT-214E, …; test: SPR ProteOn, mAb captured on anti-human IgG, 37 C
[12] = target: T2, recombinant human LIGHT-214E, …; test: cell-based or functional assay
[13] = target: T2, recombinant human LIGHT-214E, …; test: HTRF competition, AlexaFluor 647 HVEM-Fc binding to Flag-hLIGHT-214E
Protocol: as §2, §4, §5

Binder	Kd [1]	Kd [2]	Kd [3]	IC50 [4]	IC50 [5]	binding result (mouse LIGHT)	HT29 IL-8 release, IC50 [6]	binding result [7]	binding result [8]	IC50 [9]	Kd [10]	Kd [11]	HT29 IL-8 release, IC50 [12]	IC50 [13]
144F05 (purified from hybridoma supernatant) (antibody, V domains shown, Murine constant / human variable chimeric IgG, kappa, Protein G purified from hybridoma supernatant) VH: QVQLQESGPGLVKPSGTLSLTCAVSGGSISSTHWWNWVRQPPGKGLEWIGEIYHSGSTNCNPSLKSRVTISVDKSKNQFSLKMNSVTAADTAVYYCTRGGAAAGTNYGLDVWGQGTTVTVSS VL: not shown	2.89 nM	5.78 nM	3.25 nM	1.34 nM	3.32 nM	no binding	2750 pM	binds	–	–	–	–	–	–
14B09 (purified from hybridoma supernatant) (antibody, V domains shown, Murine constant / human variable chimeric IgG, lambda, Protein G purified from hybridoma supernatant) VH: QVQLVQSGAEVKKPGASVKVSCRASGYTFTSYLMHWVRQAPGQRLEWMGWINVGNGNTKYSQKFQGRVTITRDTSASTAYMELSGLRSEDTAVYYCARNYYNWFDPWGQGTLVTVSS VL: QSALTQPASVSGSPGQSITISCTGTSSDVGGYNYVSWYQQHPGKAPKLMIYDVSKRPSGVSNRFSGSKSGNTASLTISGLQAEDEADYYCFSYAGSSTVVFGGGTKLTVL	0.156 nM	3.37 nM	0.492 nM	0.895 nM	1.57 nM	no binding	1310 pM	binds	–	–	–	–	–	–
29C09 (purified from hybridoma supernatant) (antibody, V domains shown, Murine constant / human variable chimeric IgG, lambda, Protein G purified from hybridoma supernatant) VH: QEQLVQSGAEVKKPGASVKVSCKASGYTFTSYDINWVRQATGQGLEWMGWMNPNSGYTGYAQKFQGRVTMTRNTSIRTVYMELSSLRSEDTAVYYCARGGETFDIWGQGTMVTVSS VL: SYELTQPPSVSVSPGQTARITCSGDALPKKYAYWYQQKSGQAPVLVIYEDSKRPSGIPERFSGSSSGTMATLTISGAQVEDEADYYCYSTDSSDNHSVFGTGTKVTVL	2.28 nM	0.605 nM	0.311 nM	0.922 nM	1.55 nM	no binding	330 pM	binds	–	–	–	–	–	–
31A10 (purified from hybridoma supernatant) (antibody, V domains shown, Murine constant / human variable chimeric IgG, kappa, Protein G purified from hybridoma supernatant) VH: QVQLQESGPGLVKPSGTLSLTCAVSGGSISSINWWNWVRQPPGKGLEWIGEVSHSGITNYNPSLKSRVTMSVDKAKNQFSLKLNSVTAADTAVYYCARERAVADYHGMDVWGQGTTVTVSS VL: AIQLTQSPSSLSASVGDRVTITCRASQGISSALAWFQQKPGKPPKLLIFDASDLESGVSSRFSGSGSGTDFTLTISSLQPGDFATYYCQQFNSYPITFGQGTRLEIK	–	0.349 nM	–	0.662 nM	1.45 nM	–	217 pM	binds	–	–	–	–	–	–

More lines, now with the values ahead:

Kd [1]	Kd [2]	Kd [3]	IC50 [4]	IC50 [5]	binding result (mouse LIGHT)	HT29 IL-8 release, IC50 [6]	binding result [7]	binding result [8]	IC50 [9]	Kd [10]	Kd [11]	HT29 IL-8 release, IC50 [12]	IC50 [13]	Binder
0.561 nM	1.57 nM	0.881 nM	1.09 nM	1.97 nM	no binding	1330 pM	binds	–	–	–	–	–	–	13H04 (purified from hybridoma supernatant) (antibody, V domains shown, Murine constant / human variable chimeric IgG, lambda, Protein G purified from hybridoma supernatant) VH: QVQLVQSGAEVKKPGASVKVSCKASGYTFTSYGISWVRQAPGQGLEWMGWISAHNANTNYAQKLQGRVTMTTDTSTSTAYMELRSLRSDDTAMYYCARLYRNWFDPWGQGTLVTVSS VL: QSALTQPASVSGSPGQSITISCTGTSSDVGGYNYVSWYQQHPGKAPKLMIYDVSKRPSGVSNRFSGSKSGNTASLTISGLQAEDEADYYCCSYAGSSTLLFGGGTKLTVL
–	–	–	–	–	–	–	–	binds	1.62 nM	0.202 nM	0.018 nM	0.18 nM	0.82 nM	98C07 in human IgG4(PE) format (antibody, V domains shown) VH: QVQLVESGGGLVKPGGSLRLSCAASGFTFSDYYMSWIRQAPGKGLEWVSYISRSSFIYYSESVKGRFTISRDNAKNSLYLQMNSLRAEDTAVYYCARWELSPFDYWGQGTLVTVSS VL: DIQMTQSPSSLSASVGDRVTITCRASQGISNYLAWFQQKPGKAPKSLIYAASSLQSGVPSKFSGSGSGTDFTLTISSLQPEDFATYFCQQYNTYPFTFGPGTKVDIK
0.084 nM	0.161 nM	0.062 nM	0.898 nM	1.65 nM	no binding	917 pM	binds	–	–	–	–	–	–	42A02 (purified from hybridoma supernatant) (antibody, V domains shown, Murine constant / human variable chimeric IgG, lambda, Protein G purified from hybridoma supernatant) VH: EVQLVESGGGLVQPGGSLRLSCAASGFTFSSYVMSWVRQAPGKGLEWVSVISSSGVTTYYADSVKGRFTISRDNSKNTLYLQMNSLRAEETAVYYCAKGNYGSGSFCDYWGQGTPVTVSS VL: SYVLTQPPSVSVAPGKTARITCGGNNIGSKSVHWYQQRPGQAPILVIYYDSDRPSGIPERFSGSNSGNSATLTISRVEAGDEADYHCQVWESSSDHPVFGGGTKLTVL
1.64 nM	23.6 nM	1.02 nM	1.6 nM	2.66 nM	–	578 pM	binds	–	–	–	–	–	–	62C01 (purified from hybridoma supernatant) (antibody, V domains shown, Murine constant / human variable chimeric IgG, kappa, Protein G purified from hybridoma supernatant) VH: not shown VL: DIQMTQSPSSVSASVGDRVTITCRASQGISNWLAWYQQKPGKAPKLLIFAASSLQSGVPSRFSGSGSGTDFTLTISSLQPEDFATYYCQQSNSFPLTFGGGTKVEIK
–	–	–	–	–	–	–	–	binds	2.19 nM	–	–	0.29 nM	1.15 nM	31A10 in human IgG4(PE) format (antibody, V domains shown) VH: QVQLQESGPGLVKPSGTLSLTCAVSGGSISSINWWNWVRQPPGKGLEWIGEVSHSGITNYNPSLKSRVTMSVDKAKNQFSLKLNSVTAADTAVYYCARERAVADYHGMDVWGQGTTVTVSS VL: AIQLTQSPSSLSASVGDRVTITCRASQGISSALAWFQQKPGKPPKLLIFDASDLESGVSSRFSGSGSGTDFTLTISSLQPGDFATYYCQQFNSYPITFGQGTRLEIK
